Assay [1] deals with T1, human IL-34 (human, UniProt Q6ZMJ4 21-242, Biotinylated in the CSF1R displacement ELISA (sites not given); secreted homodimer, one monomer chain given.).
T1 construct: Biotinylated in the CSF1R displacement ELISA; also called hIL-34; h IL-34
T1 sequence: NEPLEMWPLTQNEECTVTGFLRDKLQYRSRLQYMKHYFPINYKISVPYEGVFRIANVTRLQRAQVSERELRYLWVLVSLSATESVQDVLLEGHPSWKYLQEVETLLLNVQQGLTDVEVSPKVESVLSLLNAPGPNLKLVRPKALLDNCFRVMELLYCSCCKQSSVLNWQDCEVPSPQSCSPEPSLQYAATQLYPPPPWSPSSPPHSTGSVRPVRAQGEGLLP
The assay is described as follows: competition ELISA: displacement of biotinylated human IL-34 (3.7 nM) from plate-bound hCSF1R_Fc. As to the method:
(§1) CSF1R extracellular domain proteins (hCSFIR_Fc commercially available from R&D Cat #329-MR, cynomolgus CSFIR ECD-Fc (AAA is a linker between CSF1R extracellular domain and Fc) (SEQ ID NO: 53)) can be bound to an ELISA plate at concentrations of 30 nM in order to capture soluble biotinylated IL-34 and allowed to bind for one hour. After washing and blocking plate, biotinylated IL-34 may be added, then detected via streptavidin conjugated peroxidase. Concentrations of labeled IL-34 near the 80% binding level (EC₈₀) (3.7 nM) may be used in conjunction with a range of antibody concentrations (0-100 nM) to determine concentration of antibody required to displace IL-34 from CSF1R. After 1 hr incubation, IL-34 bound to CSFIR is detected via streptavidin conjugated peroxidase. The antibodies are assayed (n=2) and the average and standard deviation at each concentration are calculated. The potency of an antibody to displace IL-34 from CSFIR is reported as IC₅₀ (nM) with the calculated confidence interval (CI) in Table 4 and Table 5.
A general note: In an ELISA, binding on a coated surface is turned into a signal by an enzyme label.

For assay [2], the target named is T2, cynomolgus monkey IL-34 (cynomolgus monkey, UniProt G7Q1L3 21-242).
T2 construct: Biotinylated in the CSF1R displacement ELISA; also called cyno IL-34
T2 sequence: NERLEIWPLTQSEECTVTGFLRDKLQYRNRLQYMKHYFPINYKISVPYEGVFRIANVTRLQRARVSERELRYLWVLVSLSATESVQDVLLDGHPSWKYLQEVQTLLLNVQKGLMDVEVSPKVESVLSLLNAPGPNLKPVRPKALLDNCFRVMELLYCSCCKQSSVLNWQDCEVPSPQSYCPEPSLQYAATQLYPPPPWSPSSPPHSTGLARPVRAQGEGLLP
As to the kind of experiment: SPR, BIAcore 8K, 37 C, antibody captured on Protein A chip, IL-34 flowed; mean of at least three experiments (SD 5.3E-05 in r12c5). The protocol: (§2) Binding affinity of anti-IL-34 monoclonal antibodies of the present disclosure to human and/or cynomolgus monkey (cyno) IL-34 may be determined by methods known in the art. Briefly, the binding affinity and kinetics of the antibody are evaluated by surface plasmon resonance using BIAcore™ 8K (Cytiva) at 37° C. […] For each cycle, 200 μL IL-34 is flowed over the immobilized antibody at 100 μL/minute, and then dissociated for 20 minutes. The chip surface is regenerated with 50 μL of glycine buffer at pH 1.5 at a flow rate of 100 μL/minute. The data are fit to a 1:1 Langmiur binding mode to derive kon, koff and to calculate KD.
A general note: In SPR one partner is held on a chip, and binding of the other changes the refractive index at the surface.

Assay [3] deals with T2, cynomolgus monkey IL-34. As to the kind of experiment: SPR, BIAcore 8K, 37 C, antibody captured on Protein A chip, IL-34 flowed; mean of at least three experiments (SD 16.2 in r12c6). The protocol:
as §2

Assay [4] concerns the target T1, human IL-34. As to the kind of experiment: SPR, BIAcore 8K, 37 C, antibody captured on Protein A chip, IL-34 flowed; mean of at least three experiments (SD 4.8 in r10c6). The protocol: as §2
Assay [5] has as its target T2, cynomolgus monkey IL-34. The assay is described as follows: SPR, BIAcore 8K, 37 C, antibody captured on Protein A chip, IL-34 flowed; mean of at least three experiments (SD 2.0E+06 in r12c4). As to the method: as §2
Assay [6] addresses T2, cynomolgus monkey IL-34. As to the kind of experiment: competition ELISA: displacement of biotinylated cyno IL-34 from plate-bound cynomolgus CSF1R ECD-Fc. As to the method: as §1
Assay [7] deals with T1, human IL-34. As to the kind of experiment: SPR, BIAcore 8K, 37 C, antibody captured on Protein A chip, IL-34 flowed; mean of at least three experiments (SD 4.4E+05 in r10c4). The protocol: as §2
Assay [8] addresses T1, human IL-34. The assay is described as follows: cell-based or functional assay.
Assay [9] concerns the target T1, human IL-34. The assay is described as follows: SPR, BIAcore 8K, 37 C, antibody captured on Protein A chip, IL-34 flowed; mean of at least three experiments (SD 2.9E-05 in r10c5). The protocol: as §2

Consider one molecule from US20250296997A1 (Eli Lilly, published 2025).

B1: Antibody 1 (antibody, human IgG4 S228P, kappa, F234A L235A, V domains shown)
VH: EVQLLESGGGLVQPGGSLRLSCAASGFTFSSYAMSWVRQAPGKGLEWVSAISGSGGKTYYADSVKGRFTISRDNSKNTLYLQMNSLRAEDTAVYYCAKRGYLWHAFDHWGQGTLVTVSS
VL: EIVLTQSPGTLSLSPGERATLSCRASQSVSSLYLAWYQQKPGQAPRLLIYGASSRATGIPDRFSGSGSGTDFTLTISRLEPEDFAVYYCQVVGSSPPFTFGGGTKVEIKR
notes: Fully human anti-IL-34 IgG4 (IgG4 PAA hinge/Fc, C-terminal lysine deleted), kappa light chain; also called Exemplified Antibody 1; exemplified antibody 1
Broadly, the IC50 is the midpoint of a concentration-inhibition curve. A word on the koff: it is the rate constant with which the complex falls apart. A word on the Kd: it is the equilibrium constant for the complex coming apart. As usually defined, the kon is the second-order rate constant of association. Turning to B1, the half-inhibitory concentration (IC50) with human IL-34 [1] was 0.154 nM; with cynomolgus monkey IL-34 [6] it was 0.644 nM. Moreover, the koff worked out at 0.0003 s⁻¹ with cynomolgus monkey IL-34 [2] and 0.00026 s⁻¹ in the assay with human IL-34 [9]. Besides, the Kd with cynomolgus monkey IL-34 [3] is 0.0409 nM; in the assay with human IL-34 [4], 0.0312 nM. Moreover, the kon in the assay with cynomolgus monkey IL-34 [5] was determined as 7.9e+06 M⁻¹ s⁻¹; with human IL-34 [7], 8.4e+06 M⁻¹ s⁻¹. Also, in the assay with human IL-34 [8], the “IC50 (ug/ml), neutralization of human IL-34 induced luciferase reporter activity in hCSF1R expressing 293 SRE cells” value came out at 0.0458 µg/mL.
